Experimental data as given in patent publication US20030045681A1 (published 2003).
Each block holds one molecule with its values, some of them ahead of it.

Experiments:
[1] = target: an irrelevant antigen (antigen of HyHEL-10, not given); experiment: affinity chromatography of the conjugate on an antigen column
hen egg lysozyme (hen) = hen egg lysozyme (hen) (UniProt P00698); experiment: radiolabeled scFv loaded onto an antigen column, flow-through and eluate counted
[2] = target: T1, recombinant ED-B domain of fibronectin (UniProt P02751 1266-1356, biotinylated (biotin disulfide N-hydroxysuccinimide ester) in ELISA and the ECL competition; Cy5 at the N-terminal extremity in the band-shift assay); experiment: competition of the scFv-(biotinylated ED-B) complex with excess unbiotinylated ED-B, electrochemiluminescent detection (Origen)
T1 construct: domain: ED-B; also called biotinylated ED-B; ED-B-biotin
T1 sequence (P02751 1266-1356 limits assumed): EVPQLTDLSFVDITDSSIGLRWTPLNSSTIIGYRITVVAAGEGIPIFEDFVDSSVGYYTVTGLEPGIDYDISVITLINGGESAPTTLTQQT
Protocol: (§1) Int. J. Cancer, 68, 397-405). After loading, the column was washed with 50 ml of equilibration buffer (PBS, 1 mM EDTA, 0.5 M NaCl). Antibody fragments were then eluted with triethylamine 100 mM, immediately neutralised with 1M Hepes, pH 7, and dialysed against PBS. Affinity measurements by BIAcore were performed with purified antibodies as described (Neri et al. (1997). Nature Biotechnol., 15 1271-1275) [FIG. 4]. Band-shift analysis was performed as described (Neri et al. (1996). Nature Biotechnology, 14, 385-390), using recombinant ED-B fluorescently labeled at the N-terminal extremity (Carnemolla et al. (1996). Int. J. Cancer, 68, 397-405, Neri et al. (1997). Nature Biotechnol., 15 1271-1275) with the infrared fluorophore Cy5 (Amersham) [FIG. 4]. […] We therefore performed measurements of the kinetic dissociation constant koff by competition experiments (Neri et al. (1996), Trends in Biotechnol., 14, 465-470) [FIG. 4]. […] Streptavidin-coated dynabeads, diluted in Origen Assay Buffer (Deaver, D. R. (1995). Nature, 377, 758-760) were then added (20 μl, 1 mg/ml), and the resulting mixtures analysed with a ORIGEN Analyzer (IGEN Inc. Gaithersburg, Md. USA). […]

[3] = target: T1, recombinant ED-B domain of fibronectin; experiment: SPR (BIAcore), purified scFv on ED-B
Protocol: (§2) Meth., 206, 171-182) and affinity purified onto a CNBr-activated sepharose column (Pharmacia, Uppsala, Sweden), which had been coupled with 10 mg of ED-B containing 7B89 recombinant protein (Carnemolla et al. (1996). Int. J. Cancer, 68, 397-405). After loading, the column was washed with 50 ml of equilibration buffer (PBS, 1 mM EDTA, 0.5 M NaCl). Antibody fragments were then eluted with triethylamine 100 mM, immediately neutralised with 1M Hepes, pH 7, and dialysed against PBS. Affinity measurements by BIAcore were performed with purified antibodies as described (Neri et al. (1997). Nature Biotechnol., 15 1271-1275) [FIG. 4]. Band-shift analysis was performed as described (Neri et al. (1996). Nature Biotechnology, 14, 385-390), using recombinant ED-B fluorescently labeled at the N-terminal extremity (Carnemolla et al. (1996). Int. J. Cancer, 68, 397-405, Neri et al. (1997). Nature Biotechnol., 15 1271-1275) with the infrared fluorophore Cy5 (Amersham) [FIG. 4]. […] We therefore performed measurements of the kinetic dissociation constant koff by competition experiments (Neri et al. (1996), Trends in Biotechnol., 14, 465-470) [FIG. 4]. […] Streptavidin-coated dynabeads, diluted in Origen Assay Buffer (Deaver, D. R. (1995). Nature, 377, 758-760) were then added (20 μl, 1 mg/ml), and the resulting mixtures analysed with a ORIGEN Analyzer (IGEN Inc. Gaithersburg, Md. USA). […]

[4] = target: T1, recombinant ED-B domain of fibronectin; experiment: Kd = koff/kon, koff from ECL competition, kon from BIAcore
Protocol: as §1

[5] = target: T1, recombinant ED-B domain of fibronectin; experiment: SPR (BIAcore); the footnote calls this value not sufficiently reliable
Protocol: as §2

Sequence of hen egg lysozyme (hen) (P00698 19-147): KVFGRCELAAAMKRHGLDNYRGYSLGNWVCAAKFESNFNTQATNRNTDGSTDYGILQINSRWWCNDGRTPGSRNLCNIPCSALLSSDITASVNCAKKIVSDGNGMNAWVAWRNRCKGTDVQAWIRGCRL

immunoreactivity [1]: > 78%
Molecule: scFv(HyHEL-10)-Cy5

immunoreactivity (hen egg lysozyme (hen)): > 80%
Molecule: radioiodinated scFv(D1.3)

koff [2]: 6e-06 s⁻¹
kon [3]: 110000 M⁻¹ s⁻¹
Kd [4]: 54 pM
koff [5]: 9.6e-05 s⁻¹
B1: scFv(L19) (scFv)
scFv: EVQLLESGGGLVQPGGSLRLSCAASGFTFSSFSMSWVRQAPGKGLEWVSSISGSSGTTYYADSVKGRFTISRDNSKNTLYLQMNSLRAEDTAVYYCAKPFPYFDYWGQGTLVTVSSGDGSSGGSGGASTGEIVLTQSPGTLSLSPGERATLSCRASQSVSSSYLAWYQQKPGQAPRLLIYYASSRATGIPDRFSGSGSGTDFTLTISRLEPEDFAVYYCQQTGRIPPTFGQGTKVEIKDDDSDDDYKDDDDKHHHHHH
notes: also called antibody L19; anti-ED-B L19
